One block for each substance: values may come before it.
Assays:
[1] = target: mouse DNGR-1 on B3Z-mDNGR-1-Syk reporter cells (mouse) (UniProt Q8BRU4)
[2] = target: DNGR-1 on cDC1s (mouse (endogenous in MutuDC1940 cells and splenic cDC1s)) (UniProt Q8BRU4); assay: flow cytometry on cells; red fluorescent streptavidin beads, uncoated or coated with F-actin or F-actin and myosin II, with GFP-expressing MutuDC1940 cells for 2 hr at 37°C; with isotype control or anti-DNGR-1 antibody 1F6

NFAT β-galactosidase reporter activity of B3Z-mDNGR-1-Syk cells, titration of an equimolar mixture of F-actin and myosin II against F-actin alone [1]: 2 log
Substance: F-actin and myosin II complexes (from UniProt P68135 1-377; Q28641 1-1938; P02602 1-192; P02608 1-170)

percent of MutuDCs associated with beads [2]: < 50%
Substance: beads coated with biotinylated F-actin and myosin II (from UniProt P68135 1-377; Q28641 1-1938; P02602 1-192; P02608 1-170) (complex)

NFAT β-galactosidase reporter activity of B3Z-mDNGR-1-Syk cells, titration of in vitro polymerized F-actin [1]: > 1 µM
Substance: in vitro polymerized F-actin (from UniProt P68135 1-377) (natural protein)

— article PMC6057488
